These results are taken from the DeepSol protein solubility set.

A short description of this data set: soluble on expression in E. coli; label from the status in PepcDB or PDB records.
Turning to “MKNLERLFAEKLLKIKAIKLQPANPFTWASGWKSPFYCDNRKTLSYPSLRNFVKIEITRLILERFGQVDAIAGVATGAIPQGALVADALNLPFVYVRSTPKDHGLENLIEGELRPGMKVVVVEDLISTGGSSLKAVEAIRRDGCEVIGMVAAYTYGFPVAEEAFKNAKVPLVTLTNYEAVLDVALRTGYIEEEDIATLNDWRKDPAHWDAGK”, the “soluble on expression in E. coli” value is “soluble”.
Regarding “MGSDKIHHHHHHMEQLRAELSHLLGEKLSRIECVNEKADTALWALYDSQGNPMPLMARSFSTPGKARQLAWKTTMLARSGTVRMPTIYGVMTHEEHPGPDVLLLERMRGVSVEAPARTPERWEQLKDQIVEALLAWHRQDSRGCVGAVDNTQENFWPSWYRQHVEVLWTTLNQFNNTGLTMQDKRILFRTRECLPALFEGFNDNCVLIHGNFCLRSMLKDSRSDQLLAMVGPGLMLWAPREYELFRLMDNSLAEDLLWSYLQRAPVAESFIWRRWLYVLWDEVAQLVNTGRFSRRNFDLASKSLLPWLA”, the “soluble on expression in E. coli” value is “not soluble”.
Regarding “MQSIEHFEPQFLSFIQKEMVQDLAHDINHVLRVVSMAKRLCVEEKGKEAVVIPAAYLHDCFSFAKDHSNRSQSSAFAADKALVFLKEIGYPSEYYDEIHHAIVAHSFSAKVETRTLEAKIVQDADRLDALGAIGIARCLQVSTKLNSPLYSIDDPFCYHREPNDKAYTIDHFYAKLLTLANTMKTTSAVAEAEKRTQYMRDYLTQLESELLEHHHHHH”, the “soluble on expression in E. coli” value is “soluble”.
As for “MAHHHHHHMNIALSHIKKQRCARLYSISSSNNMENLSVAIKIHKYEQTENAPNITNYGYCSGFIKNLKINDDIYLTGAHGYFNLPNDAIQKNTNFIFIATGTGISPYISFLKKLFAYDKNNLYNRNSNYTGYITIYYGVYNEDSILYLNELEYFQKMYPNNINIHYVFSYKQNSDATSFYVQDEIYKRKTEFLNLFNNYKCELYICGHKSIRYKVMDILKSHDQFDEKKKKRVHVEVY”, the “soluble on expression in E. coli” value was “not soluble”.
In the case of “MQVSLNPEWLARNNDEHKIRRNDHRSPFQRDRARILHSAAFRRLQAKTQVHGTSLNDFHRTRLTHSLEAAQIGTGIVAQIKLKQPEFRELLPSDSLIDSLCLAHDIGHPPYGHGGEIALNYMMRDHGGFEGNAQTFRIVTSLEPYTEHHGMNLSRRTLLGLLKYPALLSATRAAIPPPAVAHQRQLKAKDWSPAKGIYDCDLASLDWVLEPLCESDRELLGQMRAEPSSPKEHRKTRFKSLDCSIMELADDIAYGVHDLEDAIVLGMVTRAQWQEAAAAQLAECGDPWFEEHIAELSEMLFSGKHYVRKDAIGGIVNALLTSISVKPVEAPFHNELLAFNAYIEPHMGNALEVLKHFVSQYVIQIPQVQRFEYKGQQLIMDLFEALSADPERLLPQATGEKWRKAQEQDEGMRVICDYIAAMTDAYAQRLHQQLFSAQSHY” it was “not soluble”.
With “LALYRCAADVQAALDYYFDSETEREDTLEAVIGQFEVKAQSVIAYIKNQEITEKMLEGHIRRMTGKLKAVKAQNQSLKDYLARNMQAAGITEIKADDGTFKASFRKSEAVVILDEAQIPAEFMREAVKTEPDKTAIRKAIESGRQVAGAKIEGRKNLQIR” the entry was “not soluble”; with “MGSDKIHHHHHHMVTYAGKLVLAPMVRAGELPTRLMALAHGADLVWSPEIIDKKLIQCVRKENTALQTVDYVVPSKVQTRPETLVFRTYPKLESSKLIFQIGSASPALATQAALKVINDVSGIDINAGCPKHFSIHSGMGSALLRTPDTLCLILKELVKNVGNPHSKPISVKIRLLDTKQDTLQLVKRLCATGITNLTVHCRKTEMRNREQPITDYIAEIYEICQANNVSLIVNGAIRDRSHFHDLQANHWKNTNIGGMIAECAERDPTVFDHTSKPSEDGPSWVVACREFIQWATKFDNHIGNTKYMLSRIVPGKSVFFQYFARCKSPEEVSFVLKQLNDDGSAQTDPSEYLENCRAQEKALKNANAIAKQKRKQTDHIGSDTKKQKVVPLPTDI”, “not soluble”.
In the case of “MTIKLVATDMDGTFLDGNGRFDMDRLKSLLVSYKEKGIYFAVASGRGFLSLEKLFAGVRDDIIFIAENGSLVEYQGQDLYEATMSRDFYLATFEKLKTSPYVDINKLLLTGKKGSYVLDTVDETYLKVSQHYNENIQKVASLEDITDDIFKFTTNFTEETLEDGEAWVNENVPGVKAMTTGFESIDIVLDYVDKGVAIVELVKKLGITMDQVMAFGDNLNDLHMMQVVGHPVAPENARPEILELAKTVIGHHKERSVIAYMEGL” it was “not soluble”; in that of “MLKQPIQAQQLIELLKVHYGIDIHTAQFIQGGADTNAFAYQADSESKSYFIKLKYGYHDEINLSIIRLLHDSGIKEIIFPIHTLEAKLFQQLKHFKIIAYPFIHAPNGFTQNLTGKQWKQLGKVLRQIHETSVPISIQQQLRKEIYSPKWREIVRSFYNQIEFDNSDDKLTAAFKSFFNQNSAAIHRLVDTSEKLSKKIQPDLDKYVLCHSDIHAGNVLVGNEESIYIIDWDEPMLAPKERDLMFIGGGVGNVWNKPHEIQYFYEGYGEINVDKTILSYYRHERIVEDIAVYGQDLLSRNQNNQSRLESFKYFKEMFDPNNVVEIAFATEQLEHHHHHH”, “soluble”; in that of “GDFIVVQSTTSTQNSGLLDHILPAFEAETGIEVRVVAVGTGQAIRNAANGDGDVLLVHAKAAEEKFVAEGWGVERFDVMYNDFVLVGPASDPAGVRGGSDIVAALSAIAGAEAPFASRGDDSGTHKAELRHWASAGIDVSAASGGWYRETGSGMGATLNLAAGMGAYALSDRATWIAFGNKGDLVVAVEGDARLFNQYGVILVNPAKHPGVKAEAGQRFIDWLTGDEGQAAIAGYTL”, “not soluble”.
Regarding “MNYEIVCGIETHIELATKTKIFCGCTTEFGGEPNTHCCPVCTGQPGSLPILNQKVVEYAIKAGLALNCKINTKSHMDRKNYVYPDLPKAYQISQYDEPLCEKGYIELDSGKRIGITRIHIEEDAGKLVHENGYTYIDYNRSGVPLIEIVSEPDISSAEEAREYAEKLQLIMRYIGISDCKMQEGSMRCDVNLSLRKPGDSRFGVRTEIKNINSLSFIQKAVMAEAERQADILDAGGTVVQQTMRYDEATNSVSPMRDKENSDDYRYFPDPDILRFSINDEKVEEIRASLPELPFDKLKRYVNVLGLPEATARQIFRYRKVAEFFEGALAEGASVKNAANLIVGTIFSNMDTEEEKELFDIRISSAQFAALVKLADEKKINIGVAQSTLQKMLESGKPVEEFIKPEDLAGISDEELESLCKEAIDANPKAVADVRSGKDKAINVMFGYIMKKTGGKADIRKVEVLLRKLIGQ”, the “soluble on expression in E. coli” value is on record as “soluble”.
As to “MSLKSKGIKNLLIDLGGVLINLDRERCIENFKKIGFQNIEEKFCTHQLDGIFLQQEKGLITPAEFRDGIREMMGKMVSDKQIDAAWNSFLVDIPTYKLDLLLKLREKYVVYLLSNTNDIHWKWVCKNAFPYRTFKVEDYFEKTYLSYEMKMAKPEPEIFKAVTEDAGIDPKETFFIDDSEINCKVAQELGISTYTPKAGEDWSHLFRKEGHHHHHH”, the “soluble on expression in E. coli” value is on record as “soluble”.
“MLAIFQKAFAHPPEELNSPASHFSGKTPKLPGETLSDFLSHHQNNAFSMNFGDSAVLAYARQETSLRQRLFCGLDGIYCMFLGRLNNLCTLNRQYGLSGKNSNEAMFVIEAYRTLRDRGPYPADQVLRGLEGSFAFVVYDTQTSSVFSALSSDGGESLYWGISGDGSVVMSDDIQIIKQGCAKSFAPFPNGCMFHSETGLKSFDHPTNMMKAMPRIDSEGVLCGASFKVDACSKINSIPRRGSEANWALANSR”: the “soluble on expression in E. coli” value is on record as “soluble”.
In the case of “MGSDKIHHHHHHMSHGAGEPYFLTEMSDMAVAGCHVMAKPGGAICNIDCTYCFYLEKEALYPERNKNWRMSDETLEQFIRQHIAAQSGDRIDFAWQGGEPTMMGLPFFRRVVALCEKYGDGRKITHALQTNGILVNDEWARFFAEQHFLIGLSIDGPASLHNHYRFNRAGKGTHEQVVAAMARLKAHHVDFNTLTVVGKHNVGHAADVYEFLLAAGSRFIQFIPLVERMSTDNSSVLNLVMPGESAATLAPWTVPSWQYGEFLNQIFDIWVRRDVDRVYVQMFDVALAAWTAQQPVLCVHSETCGHAFALESNGDLYNCDHFVYPEHLLGNIHQHSIKALNNSERAIAFGEAKRETLTADCRRCDYRFVCHGGCPKHRFAVSPSGHPAHNYLCAGYKHFFQHVTPYMNVWRELLAQGYPMASIMRWLAQDARKDTGAVSRNHPCPCGSGKKYKKCCGKA” it was “not soluble”.
